The target of the test is HA of A/Vietnam/1203/04 on pseudotyped virus (H5-VN04 pseudovirus) (influenza A virus A/Vietnam/1203/04 …). As to the kind of experiment: cell-based or functional assay.

Consider one molecule from US12076390 (Dana-Farber, dated 2024).

B1: 3I14 VLD94N IgG1 (antibody, V domains shown)
VH: QVQLLESGGGVVQPGRSLRLSCAASGFTFSNYGMHWVRQAPGKGLEWVAIISFDGSKKYYANSVKGRSTISRDNSKNTLSLQMNSLGPEDTALYYCAKLPSPYYFDSRFVWVAASAFHFWGQGILVTVSS
VL: NFMLTQPPSASGTPGQRVTISCSGSSSNIGGNTVHWFQQLPGTAPKLLIYTNSLRPSGVPDRFSGSKSGTSASLAISGLQSEDEADYYCAAWDNSLNGQVFGGGTKLTVL
For the molecule B1, the “IC50, neutralization of H5-VN04 pseudovirus” value worked out at 8.65 ng/mL.
